According to US20250388669A1 (published 2025):

Legend:
B7H3 [1] = biological target: T1, B7H3 (human, UniProt Q5ZPR3 29-466, limits assumed); test: ELISA or FCM (Example 2)
T1 sequence (looked up): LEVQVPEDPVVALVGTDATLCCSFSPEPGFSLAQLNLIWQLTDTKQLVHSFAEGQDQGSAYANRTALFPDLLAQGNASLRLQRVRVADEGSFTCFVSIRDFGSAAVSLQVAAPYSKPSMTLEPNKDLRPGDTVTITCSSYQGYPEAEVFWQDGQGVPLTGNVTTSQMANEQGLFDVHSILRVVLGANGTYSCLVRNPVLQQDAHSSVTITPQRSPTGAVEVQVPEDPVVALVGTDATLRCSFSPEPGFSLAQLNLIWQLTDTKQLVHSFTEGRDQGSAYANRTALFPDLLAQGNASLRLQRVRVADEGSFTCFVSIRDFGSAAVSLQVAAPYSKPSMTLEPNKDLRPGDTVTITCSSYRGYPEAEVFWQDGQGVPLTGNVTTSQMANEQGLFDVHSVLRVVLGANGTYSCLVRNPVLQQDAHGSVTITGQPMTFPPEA

B7H3 [2] = biological target: T2, B7H3 (human, UniProt Q5ZPR3 29-466, limits assumed); test: FCM or ELISA
T2 construct: Tumor associated antigen; also called huB7H3
T2 sequence (looked up): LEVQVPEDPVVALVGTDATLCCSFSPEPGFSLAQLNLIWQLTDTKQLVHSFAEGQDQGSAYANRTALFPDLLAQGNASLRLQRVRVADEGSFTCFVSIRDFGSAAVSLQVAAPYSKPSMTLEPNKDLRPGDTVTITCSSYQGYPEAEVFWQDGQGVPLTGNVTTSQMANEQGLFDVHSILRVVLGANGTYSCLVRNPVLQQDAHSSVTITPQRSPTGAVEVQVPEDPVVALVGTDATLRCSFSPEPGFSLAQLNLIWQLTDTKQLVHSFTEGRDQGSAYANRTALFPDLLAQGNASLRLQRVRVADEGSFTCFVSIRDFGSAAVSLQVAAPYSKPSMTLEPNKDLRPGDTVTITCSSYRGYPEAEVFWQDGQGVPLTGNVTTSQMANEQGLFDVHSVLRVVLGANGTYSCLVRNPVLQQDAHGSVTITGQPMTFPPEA

B1: Ly2385 (other)
chain 1: QVQLVQSGAEVKKPGASVKVSCKASGYTFTSYVMHWVRQKPGQGLEWIGYINPYNEGTESTDKFKGRATMTSDKSTSTVYMELSSLRSEDTAVYYCASIYYGYEGTYFGVWGQGTLVTVSSASTKGPSVFPLAPSSKSTSGGTAALGCLVKDYFPEPVTVSWNSGALTSGVHTFPAVLQSSGLYSLSSVVTVPSSSLGTQTYICNVNHKPSNTKVDKKVEPKSCGGSEVQLVESGGGLVQPGGSLRLSCAASGFTFSTYAMNWVRQAPGKGLEWVGRIRSKYNNYATYYADSVKGRFTISRDDSKNSLYLQMNSLKTEDTAVYYCVRHGNFGNSYVSWFAYWGQGTLVTVSSGGGGSDKTHTCPPCPAPEAAGPSVFLFPPKPKDTLMISRTPEVTCVVVDVSHEDPEVKFNWYVDGVEVHNAKTKPREEQYNSTYRVVSVLTVLHQDWLNGKEYKCKVSNKALPAPIEKTISKAKGQPREPQVYTLPPSREEMTKNQVSLWCLVKGFYPSDIAVEWESNGQPENNYKTTPPVLDSDGSFFLYSKLTVDKSRWQQGNVFSCSVMHEALHNHYTQKSLSLSPGGGGGSGGGGSGGGGSGGGGSQVQLVQSGAEVKKPGASVKVSCKASGYTFAGFEMHWVRQAPGQGLEWMGAIDPKTGGTDYNQKFKDRVTMTRDTSISTAYMELSRLRSDDTAVYYCARDLGYFDVWGQGTLVTVSS
chain 2: QVQLVQSGAEVKKPGASVKVSCKASGYTFTSYVMHWVRQKPGQGLEWIGYINPYNEGTESTDKFKGRATMTSDKSTSTVYMELSSLRSEDTAVYYCASIYYGYEGTYFGVWGQGTLVTVSSASTKGPSVFPLAPSSKSTSGGTAALGCLVKDYFPEPVTVSWNSGALTSGVHTFPAVLQSSGLYSLSSVVTVPSSSLGTQTYICNVNHKPSNTKVDKKVEPKSCGGSQAVVTQEPSLTVSPGGTVTLTCRSSTGAVTTSNYANWVQQKPGQAPRGLIGGTNKRAPWTPARFSGSLLGGKAALTITGAQAEDEADYYCALWYSNLWVFGGGTKLTVLGGGGSDKTHTCPPCPAPEAAGPSVFLFPPKPKDTLMISRTPEVTCVVVDVSHEDPEVKFNWYVDGVEVHNAKTKPREEQYNSTYRVVSVLTVLHQDWLNGKEYKCKVSNKALPAPIEKTISKAKGQPREPQVYTLPPSREEMTKNQVSLSCAVKGFYPSDIAVEWESNGQPENNYKTTPPVLDSDGSFFLVSKLTVDKSRWQQGNVFSCSVMHEALHNRFTQKSLSLSPGGGGGSGGGGSGGGGSGGGGSDIQMTQSPSSLSASVGDRVTITCRASQDIRSNLNWYQQKPGGAVKLLIYYTSRLHSGVPSRFSGSGSGTDYTLTISSLQPEDFATYFCQQSEKLPRTFGGGTKVEIR
light: EIVLTQSPATLSLSPGERATLSCRASSSVSYMHWYQQKPGQAPRPWIYATSNLASGIPARFSGSRSGTDYTLTISSLEPEDFAVYYCQQWSSNTLTFGGGTKVEIKRTVAAPSVFIFPPSDEQLKSGTASVVCLLNNFYPREAKVQWKVDNALQSGNSQESVTEQDSKDSTYSLSSTLTLSKADYEKHKVYACEVTHQGLSSPVTKSFNRGEC
notes: Tri-specific antibody: B7H3 Fabs, central CD3 Fv, terminal CD137 Fv; Flexible linker is G2S
B1: binds (B7H3 [1]).

B2: Ly2424 (bispecific antibody, human IgG1, kappa)
chain 1: not shown
chain 2: QVQLVQSGAEVKKPGASVKVSCKASGYTFTSYVMHWVRQKPGQGLEWIGYINPYNEGTESTDKFKGRATMTSDKSTSTVYMELSSLRSEDTAVYYCASIYYGYEGTYFGVWGQGTLVTVSSASTKGPSVFPLAPSSKSTSGGTAALGCLVKDYFPEPVTVSWNSGALTSGVHTFPAVLQSSGLYSLSSVVTVPSSSLGTQTYICNVNHKPSNTKVDKKVEPKSCDKTHTCPPCPAPEAAGPSVFLFPPKPKDTLMISRTPEVTCVVVDVSHEDPEVKFNWYVDGVEVHNAKTKPREEQYNSTYRVVSVLTVLHQDWLNGKEYKCKVSNKALPAPIEKTISKAKGQPREPQVYTLPPSREEMTKNQVSLSCAVKGFYPSDIAVEWESNGQPENNYKTTPPVLDSDGSFFLVSKLTVDKSRWQQGNVFSCSVMHEALHNRFTQKSLSLSPGGGGGSGGGGSGGGGSGGGGSDIQMTQSPSSVSASVGDRVTITCRASQGIYSWLAWYQQKPGKAPNLLIYTASTLQSGVPSRFSGSGSGTDFTLTISSLQPEDFATYYCQQANIFPLTFGGGTKVEIK
light: EIVLTQSPATLSLSPGERATLSCRASSSVSYMHWYQQKPGQAPRPWIYATSNLASGIPARFSGSRSGTDYTLTISSLEPEDFAVYYCQQWSSNTLTFGGGTKVEIKRTVAAPSVFIFPPSDEQLKSGTASVVCLLNNFYPREAKVQWKVDNALQSGNSQESVTEQDSKDSTYSLSSTLTLSKADYEKHKVYACEVTHQGLSSPVTKSFNRGEC
notes: B7H3/CD40: two B7H3 Fabs, terminal CD40 Fv (TM383)
B2: binds (B7H3 [2]).

B3: Ly2279 (bispecific antibody)
chain 1: not shown
chain 2: QVQLVQSGAEVKKPGASVKVSCKASGYTFTSYVMHWVRQKPGQGLEWIGYINPYNEGTESTDKFKGRATMTSDKSTSTVYMELSSLRSEDTAVYYCASIYYGYEGTYFGVWGQGTLVTVSSASTKGPSVFPLAPSSKSTSGGTAALGCLVKDYFPEPVTVSWNSGALTSGVHTFPAVLQSSGLYSLSSVVTVPSSSLGTQTYICNVNHKPSNTKVDKKVEPKSCGGGGSGGGGSGGGGSGGGGSDIQMTQSPSSVSASVGDRVTITCRASQGIYSWLAWYQQKPGKAPNLLIYTASTLQSGVPSRFSGSGSGTDFTLTISSLQPEDFATYYCQQANIFPLTFGGGTKVEIKGGGGSDKTHTCPPCPAPEAAGPSVFLFPPKPKDTLMISRTPEVTCVVVDVSHEDPEVKFNWYVDGVEVHNAKTKPREEQYNSTYRVVSVLTVLHQDWLNGKEYKCKVSNKALPAPIEKTISKAKGQPREPQVYTLPPSREEMTKNQVSLSCAVKGFYPSDIAVEWESNGQPENNYKTTPPVLDSDGSFFLVSKLTVDKSRWQQGNVFSCSVMHEALHNRFTQKSLSLSPG
light: EIVLTQSPATLSLSPGERATLSCRASSSVSYMHWYQQKPGQAPRPWIYATSNLASGIPARFSGSRSGTDYTLTISSLEPEDFAVYYCQQWSSNTLTFGGGTKVEIKRTVAAPSVFIFPPSDEQLKSGTASVVCLLNNFYPREAKVQWKVDNALQSGNSQESVTEQDSKDSTYSLSSTLTLSKADYEKHKVYACEVTHQGLSSPVTKSFNRGEC
notes: B7H3/CD40: two B7H3 Fabs, central CD40 Fv (TM383)
B3: binds (B7H3 [2]).

B4: Ly1965 (bispecific antibody)
chain 1: QVQLVQSGAEVKKPGASVKVSCKASGYTFTSYVMHWVRQKPGQGLEWIGYINPYNEGTESTDKFKGRATMTSDKSTSTVYMELSSLRSEDTAVYYCASIYYGYEGTYFGVWGQGTLVTVSSASTKGPSVFPLAPSSKSTSGGTAALGCLVKDYFPEPVTVSWNSGALTSGVHTFPAVLQSSGLYSLSSVVTVPSSSLGTQTYICNVNHKPSNTKVDKKVEPKSCGGGGSGGGGSGGGGSGGGGSEVQLVESGGGLVQPGGSLRLSCAASGFTFSTYAMNWVRQAPGKGLEWVGRIRSKYNNYATYYADSVKGRFTISRDDSKNSLYLQMNSLKTEDTAVYYCVRHGNFGNSYVSWFAYWGQGTLVTVSSGGGGSDKTHTCPPCPAPEAAGPSVFLFPPKPKDTLMISRTPEVTCVVVDVSHEDPEVKFNWYVDGVEVHNAKTKPREEQYNSTYRVVSVLTVLHQDWLNGKEYKCKVSNKALPAPIEKTISKAKGQPREPQVYTLPPSREEMTKNQVSLWCLVKGFYPSDIAVEWESNGQPENNYKTTPPVLDSDGSFFLYSKLTVDKSRWQQGNVFSCSVMHEALHNHYTQKSLSLSPG
chain 2: QVQLVQSGAEVKKPGASVKVSCKASGYTFTSYVMHWVRQKPGQGLEWIGYINPYNEGTESTDKFKGRATMTSDKSTSTVYMELSSLRSEDTAVYYCASIYYGYEGTYFGVWGQGTLVTVSSASTKGPSVFPLAPSSKSTSGGTAALGCLVKDYFPEPVTVSWNSGALTSGVHTFPAVLQSSGLYSLSSVVTVPSSSLGTQTYICNVNHKPSNTKVDKKVEPKSCGGGGSGGGGSGGGGSGGGGSQAVVTQEPSLTVSPGGTVTLTCRSSTGAVTTSNYANWVQQKPGQAPRGLIGGTNKRAPWTPARFSGSLLGGKAALTITGAQAEDEADYYCALWYSNLWVFGGGTKLTVLGGGGSDKTHTCPPCPAPEAAGPSVFLFPPKPKDTLMISRTPEVTCVVVDVSHEDPEVKFNWYVDGVEVHNAKTKPREEQYNSTYRVVSVLTVLHQDWLNGKEYKCKVSNKALPAPIEKTISKAKGQPREPQVYTLPPSREEMTKNQVSLSCAVKGFYPSDIAVEWESNGQPENNYKTTPPVLDSDGSFFLVSKLTVDKSRWQQGNVFSCSVMHEALHNRFTQKSLSLSPG
light: EIVLTQSPATLSLSPGERATLSCRASSSVSYMHWYQQKPGQAPRPWIYATSNLASGIPARFSGSRSGTDYTLTISSLEPEDFAVYYCQQWSSNTLTFGGGTKVEIKRTVAAPSVFIFPPSDEQLKSGTASVVCLLNNFYPREAKVQWKVDNALQSGNSQESVTEQDSKDSTYSLSSTLTLSKADYEKHKVYACEVTHQGLSSPVTKSFNRGEC
notes: B7H3/CD3: two B7H3 Fabs, central CD3 Fv
B4: binds (B7H3 [2]).
